# The nanobody polyreactivity screen of Harvey et al. (2022)
# Experiment: yeast display, Sf9 membrane polyspecificity reagent, FACS + sequencing; frameworks hold sequencing errors
# How it was run: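 Using colony PCR, genes from sorted yeast display clones were amplified, then sequenced on MiSeq at 2 × 250 and filtered by CDR length. The clones had been stained with 10% biotinylated, detergent-solubilized Sf9 membrane reagent for 1 hour at 4 °C and sorted by FACS into low and high (top ~1%) gates on anti-HA and streptavidin fluorescence. Polyreactivity labels come from the gate of origin.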
row,Sequence,polyreactivity (PSR sort gate)
1,QDQLVESGAGLVQAGGSLRLSCAASGRIFPGYAMGWYRQAPGKERELVAGITWRTARTYYADSVKGRFTISRDNAKNTVYLQMNSLKPEDTAVYYCAAKYARYGRHVIFDYWGQGTQVTVSS,high polyreactivity
2,QVQLVESGGRLVQAGGSLRLSCAASGRTFRWYAMGWYRQAPGKEREVVAAITFSGGSTYYADSVKGRFTISRDIAKNTVYLQMNSLKPEDTAVYYCNAVYYRRKEYDYWGQGTQVTVSS,high polyreactivity
3,QVQLVESGGGLLQAGGSLRLSCAASGLTFAFYVMGWYRQAPGKERELVAAISASGASTYYADSVKGRFTISRDNAKNTVYLQMNSLKPEDTAVYYCAADYAVYSFTEFNYWGQGTQVTVSS,high polyreactivity
4,QVQLVESGGGLVQAGGSLRLSCAASGSTFRYYAMGWYRQAPGKERELVAAISGSGGSTYYADSVKGRFTISRDNAKNTVYFQMNSLKPEDTAVYYCNKVYARLVLSYDSWGQGTQVTVSS,high polyreactivity
5,QVQLVESGGGLVQAGGSLRLSCAASGRILVVNAMGWYRQAPGKERELVASISQSGGITYADSVKGRFTISRDNAKNTVYLQMNSLKTEDTAVYYCAAKSTWEYDYWGQGTQVTVSS,low polyreactivity
6,QVQLVESGGGLVQSGGSLRLSCAASGSIFGYYAMGWYRPAPGKERELVAGITNSGDTNYADSVKGRFTISRDNAKNTVYLQMNSLKPEDTAVYYCAAESWAALYGMDYWGQGTQVTVSS,low polyreactivity
7,QVQLVESGGGLVQAGGSLRLSCAASGITFITYVMGWYRQAPGKERELVAAISLRGGRTSYADSVKGRFTISRDNAKNTVYLQMNSLKPEDTAVYYCAARAYYTRYDFWGQGTQVTVSS,high polyreactivity
8,QDQLVESGAGLVQAGGSLRLSCAASGITFSANAMGWYRQAPGKERELVATITWSGGSTYYADSVKGRFTISRDNAKNTVYLQMNSLKPEDTAVYFCNARSYDEYPYYSYNYWGQGTQVTVSS,low polyreactivity
9,QVQLVESGGGLVQAGGSLRLSCAASGSTYNVNAMGWARQAPGKERELVAAITSSGGSSNYADSVKGRFTISRDNAKNTVYLQMNSLKPEDTAVYYCAADAIFFSRLNLGYDYWGQGTQVTVSS,low polyreactivity
10,QVQLVESGGGLVQAGGSLRLSCAASGFIFYRYAKGWYRQPPGKERELVAAITKSGTSTYYADSVKGRFTISRDNAKNTVYLQMNSLKPEDTAVYYCNADVRSRSRGSSGYDYWGQGTQVTVSS,low polyreactivity
11,QVQLVESGGGLVQAGGSLRLSCAASGNIFYVYAMGWYRQAPGKERELVATITWRGGNTYYADSVKGRFTISRDNAKNTVDLQMNSLTPEDTAVYYCAAYVGYTRAYIGQFYAYDYWGQGTQVTVSS,low polyreactivity
12,QVQLQESGGGLVQAGGSQRLSCAASGSISILQSMRWYRQAPGKERELVAGINWGATTYYADSVKGRLTSCRDYAKNTVYLEMNSLNPEDTAVYYCAVPTYYTYPLLYWGQGTQVTVSS,low polyreactivity
13,QVQLVESGGGLVQAGGSLRLSCAASGSTFTSNAMGWYRQAPGKERELVASISGSGGRTDYADSVKGRFTISRDNAKNTVYLQMNSLKPEDTAVYYCNAESRNLYSTQFDYWGQGTQVTVSS,low polyreactivity
14,QVQLVESGGGLVQAGGSLRLSCAASGNTFYGYTMGWYRQAPGKERELVAAISSRGGSTYYADSVKGRFTISRDNAKNTVYLQMISLKPEDTAVYYCAAVRPVKKFPYCYWGQGTQVTVSS,high polyreactivity
15,QVQLVESGGGLVQAGGSLRLSCAASGRTFSANAMGWYRQAPGKERELVAGITSRGGGTYYADSVKGRFTISRDNAKNTVYLQMNSLKPEDTAVYYCAAPYNGGGVHSYWEYDYWGQGTQVTVSS,high polyreactivity
16,QVQLVESGGGLVQAGGSLRLSCAASGRIFRGYAMGWYRQPPGTERELVAAITKRGGSTYYADSVKGRFTISRDNEKNTVSLQMNSLKPEDTAVYYCAAYLPGWELREYGYWGQGTQVTVSS,high polyreactivity
17,QVQLVESGGGLVQAGGSLRVSCAASGSIFRFHVMGWYRQAPGKERELVAAITRGDSTNYADSVKGRFTIPRDNAKNTVYLHMNSLKPEATAVYYCATKTPGWGIFDYWGPGTQVTVSS,low polyreactivity
18,QVQLVESGGGLVQAGGSLRLSCAASGRIFTGNAMGWSRQAPGKERELVAAISASGSSSYYADSVKGRFTISRDNAKNTVYLQMNSLNPEDTAVYYCAAEGWYCYYYWGQGTQVTVSS,high polyreactivity
19,QVQLVESGGGLVQAGGSLRLSCAASGLIFVTNAMGWYRQAPGKERELVAAITRSGGSTYYADSVKGRFTISRDNAKITVYLQMNSLKPEDTAVYYCATGFHYAYGYCGQGTQVTVSS,low polyreactivity
20,QVQLVESGGGLVQAGGSLRLSCAASGIIFGSNTMGWYRQAPGKERELVAAITSSDGSTHYADSVKGRFTISRDNAKNTVYLQMNTLKPEDTAVYYCAARKVTYGHSYGYDYWGQGTQVTVSS,low polyreactivity
21,QVQLVESGGGLVQAGGSLRLSCAASGGIFAYNVMGWYRQAPGKERELVAAISSAGSTYYADSVKGRFTISRDNAKNTVYLQMNSLKPEDTAVYYCAVRIGLKYDYWGQGTQVTVSS,low polyreactivity
22,QVQLVESGGGLVQAGGSLRLSFAPSGRIVPNAMGWYRQAPGKDREMVAAISRSGGSTYYADSVKGRFTISRDNAKNTVYLQMNSLKPEDTAVYYCAKRSTSQSLQGEYWGQGTQVTVSS,high polyreactivity

row,Sequence,polyreactivity (PSR sort gate)
1,QVQLVESGGGLVQAGGSLRLSCAASGSIFASNAMGCYRQAPGKERELVAAINSGDSTNYADSVKGRFTISRDNAKNTVYLQMNSLKPEDTAVYYCARGLEERYDYWGQGTQVTVSS,low polyreactivity
2,QVQLVESGGGLVQAGGSLRLSCAASGRIFLWYAMGWYRQAPGKERELVAAISSGGSTKYADSVKGRFTISRDNAKNTVYLQMNSLKPEDTAVYYCAATRKYSYVTYYYWGQGTQVTVSS,high polyreactivity
3,QVQLVESGGGLVQAGGSLRLSCAASGFIFRYYAMGWYRQAPGKERELVAAISSGGGTYYADSVKGRFTISRDNAKNTVYLQMNSLKPEDTAVYYCNKASTSYYRFNYWGQGTQVTVSS,high polyreactivity
4,QDQLVESGGGLVQAGGSLRLSCAASGLTFYVNAMGWYRQAPGTERELDAAITWSGGSTHYADSVKGRFTISRDNAKNTVYLQMNSLKPEDTAVYYCGRATFQNSYVAYDYCGQGTQVTVSS,low polyreactivity
5,QVQLVESGGGLVQAGGSLRLSCAASGSTFLWYAMGWYRQAPGKERELVATISGSGGSTYYADSVKGRFTISRDNAKNTVYLQMNSLKPEDTAVYYCARDTLGGTSLGDYWGQGTQVTVSS,high polyreactivity
6,QLQLVESGGGLVQAGGSLRLSCAASGGPFRPYAMGWYRQAPGKERELVAAISYTGSTYYADSVKGRFTISRDNAKNTVYLQMNSLKPEDTAVYYCAKDFWYPPRFDYWGQGTQVTVSS,low polyreactivity
7,QVQLVESGGGLVQAGGSLRLSCAASGSIFDWYAMGWYRQAPGKEGELVAAISSGDSTYYADSVKGRFTISRDNAKNTVYLQMNSLKPEDTAVYYGAAVTKLSGIRYNYWGQGTQVTVSS,low polyreactivity
8,QVHLVDSGGGLVQAGGSLRLSCAASGRIYYVYAMGGYRQAPGQERELVAGITSTGGSTYYADSVKGRFTISRDNAKSTVYLQINRLNPVDTAVYYGATDYGYYDYWGQGTQVTVSS,low polyreactivity
9,QVQLVESGGGLVQAGGSLRLSCAASGSIFRYAMGWYRQAPGKEREFVAAITSRGGTTYYADSVKGRFTISRDNAKNTVYLLMNSLKPEDTAVYYCYAHRYATAGSWVVRHDYWGQGTQGTVSS,high polyreactivity
10,QVQLVESGGGLVQAGGSLRLSCAASGFTFYYYPMGWYRQAPGKERELVAAISSSGGRTYYADSVKGRFTISRDNSKNTVYLQMNSLKPEDTAVYYCAADRYFRSYDYWGQGTQVTVSS,high polyreactivity
11,QVQLVESGGGLVQAGGSLRLSCAASGFTFVYYAMVWYRQAPGKERELVAAISRSGGSTYYADSVKGRFTISRDNAKNTVYLQMNSLKPEDTAVYYCAADIVARYPYDYAMYYWGQGTQVTVSS,high polyreactivity
12,QVQLVESGGGLVQAGGSLRLSCAASGRTFEGNAMGWYRQAPGKERELVAAISTSGGRTYYADSVKGRFTISRDNAKNTVYLQMNSLKPDDTAVYYCAVDHYSSYEYWGQGTQVTVSS,low polyreactivity
13,QVQLVESGGGLVQAGGSLRLSCAASGRNFILNAMGWYRQAPGKERELVAAISWSGGSTYYADSVKGRFTISRDNAKNTVYLQMNSLKPEDTAVYYCAAETYAYLFHTYDYWGQGTQVTVSS,low polyreactivity
14,QVQLVDSGRGLVQAGGSLRLSCASSGSTFRDYAMGWYRQAPGKETELVAVITWNGGSTYYADSVKGRFTISRDNAKNTVYLEMNSLKPEDTAVYYCGAVYPRSLSTEYYYWGQGTQVTVSS,high polyreactivity
15,QVQHVESGGGLVQAGGSLRLSCAASGYIFSRYRGWYRQAPGTERELVAAITRGGVSTYYADSVKGRFTISRDNAKNTVYLQMNSLKPEDTAVYYCATGRPVYYVASYDYDYWGQGTQVTVSS,low polyreactivity
16,QVHLVDSGAGLVQAGGSLRLSCAASGYTFYANAMGWYRQAPGKERELVAGINRSGSTYYADSVKGRFTISRDNAKNTVYLQMNSLKPEDTAVYYCATAWHRGVRGRTSGAFDYWGQGTQVTVSS,high polyreactivity
17,QVQLVESGGGLVQAGGSLRLSCAASGSIFGNYAMGWYRQAPGKEREFVAAITWIGGSSYYADSVKGRFTISRDNAKNTVYLQMHSLKPEDTAVYYCARTSYARYRNGWTYDHWGQGTQVTVSS,low polyreactivity
18,QVQLVESGGGLVQAGGSLRLSCAASGIIFDYYAMGWYRQAPGKERELVASISWSGGGTYYADSVKGRFTISRDNAKNTVYLEMNSLKPEDTAVYYCAADGSTVNAPRWSDPYDYWGQGTQVTVSS,low polyreactivity
19,QVQLVESGGGLVQAGGSLRLSCAASGIIFAGYAMGWYRQAPGKERELVADITSSGTSTYYADSVKGRFTISRDNAKNTVYLQMNSLKPEDTAVYYCAADDPRKNFTILDYLYDYWGQGTQVTVSS,low polyreactivity
20,QVQLVESGGGLVQAGGSLRLSCDASGRIFVYYAMGWYRQAPGKERELVAAINSGGTTKYADSVKGRFTISRDNAKNTVYLQMNSLKPEDTAVYYCAAEPLTPSRDRVPYEYYYWGQGTQVTVSS,high polyreactivity
21,QVQLVESGGGLVQAGGSLRLSCAASGSIFLDYAMGWYRQAPGKERELVATITSGSSTYADSVKGRFTISRDNAKNTVYLQMNSLKPEDTAVYYCNVKLIVRYWNPSPYDYWGQGTQVTVSS,low polyreactivity
